According to patent US20180147257A1:

Columns and labels:
Assay in all cases: cell-based or functional assay
CD163 on YT-1 cells = CD163 on YT-1 cells (UniProt Q86VB7)
FLT1 on YT-1 cells = FLT1 on YT-1 cells (UniProt P17948)
HLA-E on YT-1 cells = HLA-E on YT-1 cells (UniProt P13747)
LTβR on YT-1 cells = LTβR on YT-1 cells (UniProt P36941)
ROR2 on YT-1 cells = ROR2 on YT-1 cells (UniProt Q01974)
Sequence of ROR2 on YT-1 cells (Q01974 34-943 limits assumed): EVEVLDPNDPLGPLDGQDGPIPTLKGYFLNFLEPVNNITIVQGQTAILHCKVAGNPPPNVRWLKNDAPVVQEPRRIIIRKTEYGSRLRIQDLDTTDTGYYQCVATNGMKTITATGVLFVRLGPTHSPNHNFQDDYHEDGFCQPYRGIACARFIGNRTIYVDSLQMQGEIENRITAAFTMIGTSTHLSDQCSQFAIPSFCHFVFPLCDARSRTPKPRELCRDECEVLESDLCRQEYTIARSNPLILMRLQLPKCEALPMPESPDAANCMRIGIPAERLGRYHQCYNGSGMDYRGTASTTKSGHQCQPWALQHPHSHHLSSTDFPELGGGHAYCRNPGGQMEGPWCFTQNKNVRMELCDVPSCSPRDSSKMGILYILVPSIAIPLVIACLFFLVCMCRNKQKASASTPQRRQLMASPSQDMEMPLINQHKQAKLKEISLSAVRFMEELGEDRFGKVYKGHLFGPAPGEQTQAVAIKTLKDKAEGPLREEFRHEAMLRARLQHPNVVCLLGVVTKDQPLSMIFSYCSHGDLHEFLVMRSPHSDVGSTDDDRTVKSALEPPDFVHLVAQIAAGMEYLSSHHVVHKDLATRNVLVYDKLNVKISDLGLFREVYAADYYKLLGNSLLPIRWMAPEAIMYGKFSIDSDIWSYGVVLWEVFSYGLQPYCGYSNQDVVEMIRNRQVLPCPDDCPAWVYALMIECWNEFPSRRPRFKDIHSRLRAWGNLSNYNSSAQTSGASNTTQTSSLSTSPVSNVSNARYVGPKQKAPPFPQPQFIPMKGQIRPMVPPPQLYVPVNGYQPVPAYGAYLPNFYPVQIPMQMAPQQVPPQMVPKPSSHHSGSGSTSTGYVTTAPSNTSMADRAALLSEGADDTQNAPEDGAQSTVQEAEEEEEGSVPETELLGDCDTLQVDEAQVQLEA

Sequence of FLT1 on YT-1 cells (P17948 27-1338 limits assumed): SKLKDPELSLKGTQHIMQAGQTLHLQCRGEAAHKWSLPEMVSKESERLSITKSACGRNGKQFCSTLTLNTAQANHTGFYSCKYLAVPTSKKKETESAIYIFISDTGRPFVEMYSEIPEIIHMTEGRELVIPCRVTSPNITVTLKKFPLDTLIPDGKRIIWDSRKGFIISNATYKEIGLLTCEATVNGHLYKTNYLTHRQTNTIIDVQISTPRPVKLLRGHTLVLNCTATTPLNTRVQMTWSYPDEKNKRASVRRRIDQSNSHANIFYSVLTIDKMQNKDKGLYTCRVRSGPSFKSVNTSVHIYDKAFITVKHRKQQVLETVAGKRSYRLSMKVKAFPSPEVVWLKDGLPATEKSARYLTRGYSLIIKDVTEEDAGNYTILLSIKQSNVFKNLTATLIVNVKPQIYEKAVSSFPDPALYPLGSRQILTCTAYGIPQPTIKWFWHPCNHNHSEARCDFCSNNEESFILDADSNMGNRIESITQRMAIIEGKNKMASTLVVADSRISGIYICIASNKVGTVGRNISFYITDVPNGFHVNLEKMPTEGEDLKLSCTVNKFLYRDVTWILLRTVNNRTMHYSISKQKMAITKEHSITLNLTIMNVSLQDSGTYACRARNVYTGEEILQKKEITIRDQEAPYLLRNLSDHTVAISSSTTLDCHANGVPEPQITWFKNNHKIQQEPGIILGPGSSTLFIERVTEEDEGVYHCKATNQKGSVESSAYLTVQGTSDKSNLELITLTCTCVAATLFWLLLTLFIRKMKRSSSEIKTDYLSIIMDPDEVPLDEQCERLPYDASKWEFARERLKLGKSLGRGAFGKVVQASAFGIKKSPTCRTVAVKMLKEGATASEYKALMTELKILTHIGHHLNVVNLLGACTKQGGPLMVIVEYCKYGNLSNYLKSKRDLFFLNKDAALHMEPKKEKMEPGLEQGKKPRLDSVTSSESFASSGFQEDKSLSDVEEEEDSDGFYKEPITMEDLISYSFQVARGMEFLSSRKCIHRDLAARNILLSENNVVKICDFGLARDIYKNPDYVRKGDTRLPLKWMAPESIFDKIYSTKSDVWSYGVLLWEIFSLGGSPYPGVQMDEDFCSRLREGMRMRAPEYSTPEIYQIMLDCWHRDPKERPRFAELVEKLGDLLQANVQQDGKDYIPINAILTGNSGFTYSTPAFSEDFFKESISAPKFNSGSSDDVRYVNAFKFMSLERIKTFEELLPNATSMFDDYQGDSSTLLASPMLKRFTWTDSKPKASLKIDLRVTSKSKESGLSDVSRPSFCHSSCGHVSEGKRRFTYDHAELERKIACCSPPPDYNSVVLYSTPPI
Sequence of CD163 on YT-1 cells (Q86VB7 42-1156): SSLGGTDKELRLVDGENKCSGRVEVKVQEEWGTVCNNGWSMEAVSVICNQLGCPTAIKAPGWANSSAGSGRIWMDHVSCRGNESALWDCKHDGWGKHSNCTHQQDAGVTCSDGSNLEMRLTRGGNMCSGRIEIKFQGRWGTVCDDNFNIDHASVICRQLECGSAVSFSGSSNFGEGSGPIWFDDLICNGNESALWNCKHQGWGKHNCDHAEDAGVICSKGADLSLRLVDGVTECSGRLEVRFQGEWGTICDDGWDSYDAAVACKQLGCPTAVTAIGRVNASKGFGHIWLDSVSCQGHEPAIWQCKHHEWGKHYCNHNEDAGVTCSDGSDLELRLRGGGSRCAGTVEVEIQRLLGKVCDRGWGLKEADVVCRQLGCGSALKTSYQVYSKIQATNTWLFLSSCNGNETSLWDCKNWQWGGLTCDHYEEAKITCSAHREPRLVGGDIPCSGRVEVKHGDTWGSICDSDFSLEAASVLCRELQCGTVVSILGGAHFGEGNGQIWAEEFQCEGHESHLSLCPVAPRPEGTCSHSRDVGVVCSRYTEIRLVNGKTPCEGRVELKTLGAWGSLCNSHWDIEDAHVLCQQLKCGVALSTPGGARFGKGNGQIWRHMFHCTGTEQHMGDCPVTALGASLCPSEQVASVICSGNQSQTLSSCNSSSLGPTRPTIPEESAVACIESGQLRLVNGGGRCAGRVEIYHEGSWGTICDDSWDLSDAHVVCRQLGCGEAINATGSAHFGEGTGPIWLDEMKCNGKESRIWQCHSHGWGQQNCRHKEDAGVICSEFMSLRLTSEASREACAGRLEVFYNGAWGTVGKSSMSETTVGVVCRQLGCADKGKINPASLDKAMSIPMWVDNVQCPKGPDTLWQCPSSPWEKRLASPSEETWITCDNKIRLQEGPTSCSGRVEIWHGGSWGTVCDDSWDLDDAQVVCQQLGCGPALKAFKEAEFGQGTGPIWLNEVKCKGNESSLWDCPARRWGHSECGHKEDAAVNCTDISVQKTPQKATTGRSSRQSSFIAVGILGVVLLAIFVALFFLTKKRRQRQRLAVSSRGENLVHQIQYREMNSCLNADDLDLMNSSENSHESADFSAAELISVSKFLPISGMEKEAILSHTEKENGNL
Sequence of LTβR on YT-1 cells (P36941 31-435 limits assumed): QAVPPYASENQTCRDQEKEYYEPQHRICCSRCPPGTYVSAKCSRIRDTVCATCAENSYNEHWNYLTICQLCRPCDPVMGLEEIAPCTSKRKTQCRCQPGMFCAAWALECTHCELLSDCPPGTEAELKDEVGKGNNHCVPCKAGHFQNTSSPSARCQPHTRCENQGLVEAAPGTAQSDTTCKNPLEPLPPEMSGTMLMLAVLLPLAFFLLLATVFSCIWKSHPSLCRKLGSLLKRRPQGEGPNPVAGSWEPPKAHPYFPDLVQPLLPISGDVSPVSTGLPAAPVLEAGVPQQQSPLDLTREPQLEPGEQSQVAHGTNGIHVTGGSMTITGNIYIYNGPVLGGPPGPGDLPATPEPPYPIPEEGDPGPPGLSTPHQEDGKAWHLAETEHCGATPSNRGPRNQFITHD
Sequence of HLA-E on YT-1 cells (P13747 22-358 limits assumed): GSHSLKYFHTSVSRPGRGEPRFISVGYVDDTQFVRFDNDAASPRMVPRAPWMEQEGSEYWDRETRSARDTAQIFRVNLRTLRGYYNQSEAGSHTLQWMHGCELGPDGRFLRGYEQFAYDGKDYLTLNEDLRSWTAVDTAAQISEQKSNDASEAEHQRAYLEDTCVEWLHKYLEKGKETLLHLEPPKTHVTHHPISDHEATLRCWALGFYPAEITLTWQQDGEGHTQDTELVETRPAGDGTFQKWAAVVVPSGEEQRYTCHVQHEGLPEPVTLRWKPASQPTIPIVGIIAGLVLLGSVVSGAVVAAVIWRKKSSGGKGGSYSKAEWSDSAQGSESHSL

Log 10 fold change of sgRNAs in YT-1 GeCKO library cells sorted for non-binding to BTN3A-IgG4 (Log 10 fold change) (CD163 on YT-1 cells): 3.56 | Log 10 fold change of sgRNAs in YT-1 GeCKO library cells sorted for non-binding to BTN3A-IgG4 (Log 10 fold change) (FLT1 on YT-1 cells): 3.7 | Log 10 fold change of sgRNAs in YT-1 GeCKO library cells sorted for non-binding to BTN3A-IgG4 (Log 10 fold change) (HLA-E on YT-1 cells): 3.66 | Log 10 fold change of sgRNAs in YT-1 GeCKO library cells sorted for non-binding to BTN3A-IgG4 (Log 10 fold change) (LTβR on YT-1 cells): 3.69 | Log 10 fold change of sgRNAs in YT-1 GeCKO library cells sorted for non-binding to BTN3A-IgG4 (Log 10 fold change) (ROR2 on YT-1 cells): 3.54
Substance: fluorescently coupled BTN3A ectodomain fused to the Fc fragment of human IgG4 (Fc fusion)
